The text below walks through data of article PMC2926592.

In assay [1] the target is human XRCC1 P161L population variant, recombinant, S-peptide- and His-tagged (human) (UniProt P18887). The experiment in a line: pull-down.
Assay [2] concerns the target human XRCC1 R109A variant, recombinant, S-peptide- and His-tagged (human) (UniProt P18887). The experiment in a line: pull-down.

As for “DNA polymerase β (POLβ), recombinant (from UniProt P06746 1-335) (enzyme)”, the percent decrease in POLβ retention against WT XRCC1 in assay [1] worked out at 20%. In assay [2], the fold decrease in POLβ retention against WT XRCC1 came to 5 fold and the percent decrease in POLβ retention against WT XRCC1 was 83%.
